Data from patent publication US20210139568A1 (AXON NEUROSCIENCE, published 2021).

What was measured:
[1] = biological target: in vitro phosphorylated tau deletion mutant tau 221-441 (human, UniProt P10636 538-758, phosphorylated in vitro with rat brain kinase extract; sites not listed); assay: immunoblot of in vitro phosphorylated tau deletion mutants
[2] = biological target: T1, in vitro phosphorylated tau 2N4R point mutant Thr217Ala (human, UniProt P10636 1-758, phosphorylated in vitro with rat brain kinase extract; sites not listed); assay: immunoblot of in vitro phosphorylated tau 2N4R point mutants
T1 construct: also called Thr217A1a
T1 sequence (P10636 other isoform, or with tags, fused parts or gaps T217A T217A limits assumed): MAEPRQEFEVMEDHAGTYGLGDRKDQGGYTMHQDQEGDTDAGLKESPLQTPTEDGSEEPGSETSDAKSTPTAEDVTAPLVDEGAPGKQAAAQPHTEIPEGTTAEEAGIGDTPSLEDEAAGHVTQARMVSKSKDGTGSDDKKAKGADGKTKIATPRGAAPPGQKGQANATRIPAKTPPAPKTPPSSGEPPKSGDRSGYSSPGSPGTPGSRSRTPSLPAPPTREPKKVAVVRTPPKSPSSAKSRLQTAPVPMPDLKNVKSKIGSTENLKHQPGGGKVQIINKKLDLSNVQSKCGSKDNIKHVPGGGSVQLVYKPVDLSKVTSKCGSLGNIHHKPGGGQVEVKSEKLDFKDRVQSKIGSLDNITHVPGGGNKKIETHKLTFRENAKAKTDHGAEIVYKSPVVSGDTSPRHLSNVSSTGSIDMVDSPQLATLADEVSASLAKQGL
Method: Soluble tau proteins were diluted with an equal volume of 2×SDS (sodium dodecylsulfate) sample loading buffer (with β-mercaptoethanol) (Laemmli, 1970) and 250 ng of proteins were loaded per lane. For insoluble PHF-tau, the pellets were dissolved in 1×SDS-sample loading buffer, in 1/50 volume of the soluble fraction used for the preparation of the insoluble tau fraction. Then, equal volumes of soluble tau and sarkosyl-insoluble tau fractions were used for immunoblotting, which corresponded to 15 μg of total protein in the soluble fraction (see Filipcik et al. 2010). Samples were heated at 95° C. for 5 min, loaded onto 5-20% gradient SDS polyacrylamide gels, and electrophoresed in a Tris-glycine-SDS buffer system for 40 minutes at 25 mA. Proteins were transferred to a polyvinylidene fluoride (PVDF) membrane (1 h at 150 mA in 10 mM CAPS, pH 12). […] The blots were developed with SuperSignal West Pico Chemiluminescent Substrate (Pierce, U.S.A), and the protein signals detected using a LAS3000 imaging system (FUJI Photo Film Co., Japan). The chemiluminescence signal intensities were quantified using AIDA (Advanced Image Data Analyzer, Raytest, Straubenhardt, Germany) software. […]

in vitro phosphorylated tau deletion mutant tau 221-441, sequence (P10636 other isoform, or with tags, fused parts or gaps mutant): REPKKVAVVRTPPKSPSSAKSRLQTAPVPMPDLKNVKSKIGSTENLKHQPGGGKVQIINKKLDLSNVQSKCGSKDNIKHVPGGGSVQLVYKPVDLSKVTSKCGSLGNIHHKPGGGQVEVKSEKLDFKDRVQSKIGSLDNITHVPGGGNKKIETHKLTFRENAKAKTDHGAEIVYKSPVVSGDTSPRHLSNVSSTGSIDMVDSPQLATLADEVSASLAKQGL

binding result [1]: no binding | binding result [2]: no binding
B1: monoclonal antibody DC2E7 (antibody, mouse IgG2a, V domains shown)
VH: DVQLVESGGGLVQPGGSRKLSCAASGFTFSSFGMHWVRQAPEKGLEWVAYISGDSNTIYYADTVKGRFTISRDNPKNTLFLQMTSLRSEDTAIYYCARTLAYWGQGTLVTVS
VL: DIQMTQSSSSFSVSLGDRVTITCKASEDIYNRLAWYQQTPGNAPSLLISGASGLETGVPSRFSGSGSGRDYTLSITSLQTEDVATYYCLQYWSIPWTFGGGTKLEIKR
notes: also called DC217 (apparent misprint)
